For this assay, the target named is T1, human FasL where an immunoglobulin (IgG) is combined (huFasL-IgG) (human, UniProt P48023 134-281, limits assumed).
T1 construct: also called IgG-combined FasL; not shown: immunoglobulin (IgG) part
T1 sequence (looked up): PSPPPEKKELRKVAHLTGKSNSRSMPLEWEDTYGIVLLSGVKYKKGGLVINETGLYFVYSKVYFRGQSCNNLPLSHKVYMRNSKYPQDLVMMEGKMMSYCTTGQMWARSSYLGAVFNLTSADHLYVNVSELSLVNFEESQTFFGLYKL
Kind of assay: flow cytometry on transfected mouse cells. On the procedure: After transfecting mutated huDR5 DNA to mouse cells and expressing each of DR5 where huDR5-CRD2 was mutated (Table 1, SEQ ID NO: 4), or DR5 where huDR5-CRD3 was mutated (Table 1, SEQ ID NO: 5), flow cytometry was performed using human FasL where an immunoglobulin (IgG) binding only to cells expressing huDR5 was combined (huFasL-IgG), and the result was shown in FIG. 8b.
For orientation: Flow cytometry measures light scatter and fluorescence of single cells or particles in a stream.

Results on two molecules are retold here after patent US20230159650A1 (SEOUL NATIONAL UNIVERSITY R AND DB FOUNDATION, published 2023).

B1: DR5 where huDR5-CRD2 was mutated (Mutation huDR5-CRD2 Protein) (receptor)
chain: ITQQDLAPQQRAAPQQKRSSPSEGLCPPGHHISEDGRDCISCKYGQDYSTHWNDLLACLACTRCAAGEVELSPCTTTRNTVCQCEEGTFREEDSPEMCRKCRTGCPRGMVKVGDCTPWSDIECVHKESGIIIGVTVAAVVLIVAVFVCKSLLWKKVLPYLKGICSGGGGDPERVDRSSQRPGAEDNVLNEIVSILQPTQVPEQEMEVQEPAEPTGVNMLSPGESEHLLEPAEAERSQRRRLLVPANEGDPTETLRQCFDDFADLVPFDSWEPLMRKLGLMDNEIKVAKAEAAGHRDTLYTMLIKWVNKTGRDASVHTLLDALETLGERLAKQKIEDHLLSSGKFMYLEGNADSAMS
notes: Expressed in transfected mouse cells; also called huDR5-CRD2 mutant
B1: the binding result is “no binding”.

B2: DR5 where huDR5-CRD3 was mutated (Mutation huDR5-CRD3 Protein) (receptor)
chain: ITQQDLAPQQRAAPQQKRSSPSEGLCPPGHHISEDGRDCISCKYGQDYSTHWNDLLFCLRCTRCDSGEVELSPCTTTRNTVCQCEEGTFREEDAPAMCAKCATGCPRGMVKVGDCTPWSDIECVHKESGIIIGVTVAAVVLIVAVFVCKSLLWKKVLPYLKGICSGGGGDPERVDRSSQRPGAEDNVLNEIVSILQPTQVPEQEMEVQEPAEPTGVNMLSPGESEHLLEPAEAERSQRRRLLVPANEGDPTETLRQCFDDFADLVPFDSWEPLMRKLGLMDNEIKVAKAEAAGHRDTLYTMLIKWVNKTGRDASVHTLLDALETLGERLAKQKIEDHLLSSGKFMYLEGNADSAMS
notes: Expressed in transfected mouse cells; also called huDR5-CRD3 mutant
B2: the binding result is listed as “no binding”.
